From paper PMC11385703

Assays:
[1] = biological target: Myotoxin II, biotinylated (Bothrops asper) (UniProt P24605); test: BLI; […]) biosensors; […]; association in HEPES-MES pH 7.4 for 300 s, dissociation in HEPES-MES pH 7.4 for 600 s; 1:1 binding model, […]
[2] = biological target: Myotoxin II, biotinylated (Bothrops asper) (UniProt P24605); test: BLI; […]) biosensors; […]; dissociation for 600 s in HEPES-MES pH 3.5; 25°C; 1:1 binding model, […]
[3] = biological target: Myotoxin II, biotinylated (Bothrops asper) (UniProt P24605); test: BLI; […]) biosensors; […]; dissociation for 600 s in HEPES-MES pH 5.5; 25°C; 1:1 binding model, […]
[4] = biological target: Myotoxin II, biotinylated (Bothrops asper) (UniProt P24605); test: BLI; […]) biosensors; […]; association in HEPES-MES pH 7.4 for 300 s, dissociation in HEPES-MES pH 5.5 for 600 s; 1:1 binding model, […]
[5] = biological target: Myotoxin II, biotinylated (Bothrops asper) (UniProt P24605); test: BLI; […]) biosensors; […]; dissociation for 600 s in HEPES-MES pH 6.5; 25°C; 1:1 binding model, […]
[6] = biological target: Myotoxin II, biotinylated (Bothrops asper) (UniProt P24605); test: BLI; […]) biosensors; […]; dissociation for 600 s in HEPES-MES pH 4.0; 25°C; 1:1 binding model, […]
[7] = biological target: Myotoxin II, biotinylated (Bothrops asper) (UniProt P24605); test: BLI; […]) biosensors; […]; dissociation for 600 s in HEPES-MES pH 6.0; 25°C; 1:1 binding model, […]
[8] = biological target: Myotoxin II, biotinylated (Bothrops asper) (UniProt P24605); test: BLI; […]) biosensors; […]; dissociation for 600 s in HEPES-MES pH 4.5; 25°C; 1:1 binding model, […]
[9] = biological target: Myotoxin II, biotinylated (Bothrops asper) (UniProt P24605); test: BLI; […]) biosensors; […]; dissociation for 600 s in HEPES-MES pH 5.0; 25°C; 1:1 binding model, […]

Myotoxin II, biotinylated (Bothrops asper), sequence (P24605 17-137): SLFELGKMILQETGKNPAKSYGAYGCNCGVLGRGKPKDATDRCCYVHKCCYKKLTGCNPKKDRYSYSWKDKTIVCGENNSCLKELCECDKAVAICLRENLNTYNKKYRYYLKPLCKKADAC

B1: TPL0039_05_A03 Fab (Fab, V domains shown)
VH: QVQLVESGGGLAKPGRSLRLSCAVSGFTFSSYGMHWVRQAPGKGLEWVAVISYDGSNKYYADSVKGRFTISRDNSKNTLYLQMNSLRAEDTAVYYCASTLQQLDAFDIWGQGTMVTVSS
VL: NFMLTQPHSVSESPGKTITISCTRSSGSIASNYVQWYQQRPGSVPTPVIYEDDRRPSGVPDRFSGSIDSSSNSASLTISGLKTEDEADYYCQSYDSSSVVFGGGTKITVL
Q: Which results are given for B1?
A: Kd [1]: 1.5 nM; koff [1]: 0.00031 s⁻¹; kon [1]: 200000 M⁻¹ s⁻¹; koff [2]: 0.059 s⁻¹; koff [3]: 0.0012 s⁻¹; Kd [4]: 6.04 nM; koff [4]: 0.0011 s⁻¹; kon [4]: 180000 M⁻¹ s⁻¹; koff [5]: 0.00058 s⁻¹; koff [6]: 0.01 s⁻¹; koff [7]: 0.00069 s⁻¹; koff [8]: 0.0038 s⁻¹; koff [9]: 0.0016 s⁻¹
